{
  "source": "paper doi:10.1101/2023.11.25.568662",
  "binders": {"B1": {"name": "biotinylated recombinant human G-CSFR (BioGCSFR) (receptor)", "chain": "ECGHISVSAPIVHLGDPITASCIIKQNCSHLDPEPQILWRLGAELQPGGRQQRLSDGTQESIITLPHLNHTQAFLSCCLNWGNSLQILDQVELRAGYPPAIPHNLSCLMNLTTSSLICQWEPGPETHLPTSFTLKSFKSRGNCQTQGDSILDCVPKDGQSHCCIPRKHLLLYQNMGIWVQAENALGTSMSPQLCLDPMDVVKLEPPMLRTMDPSPEAAPPQAGCLQLCWEPWQPGLHINQKCELRHKPQRGEASWALVGPLPLEALQYELCGLLPATAYTLQIRCIRWPLPGHWSDWSPSLELRTTERAPTVRLDTWWRQRQLDPRTVQLFWKPVPLEEDSGRIQGYVVSWRPSGQAGAILPLCNTTELSCTFHLPSEAQEVALVAYNSAGTSRPTPVVFSESRGPALTRLHAMARDPHSLWVGWEPPNPWPQGYVIEWGLGPPSASNSNKTWRMEQNGRATGFLLKENIRPFQLYEIIVTPLYQDTMGPSQHVYAYSQEMAPSHAPELHLKHIGKTWAQLEWVPEPPELGKSPLTHYTIFWTNAQNQSFSAILNASSRGFVLHGLEPASLYHIHLMAASQAGATNSTVLTLMTLTPEGSELH", "modifications": "biotin (Biotin-NHS, 1:20 molar ratio G-CSFR:Biotin-NHS)"}},
  "key": {"[1]": {"target": "16 unique Boskar4 variants displayed on E. coli", "assay": "flow cytometry on cells"}, "[2]": {"target": "bv2 displayed on E. coli (Intimin fusion)", "assay": "flow cytometry on cells"}},
  "data": [
    {"binder": "B1", "values": [
      {"measurement": "fold increase of expression-normalized binding over Boskar4", "setting": "[1]", "result": 3, "unit": "fold"},
      {"measurement": "fold increase of expression-normalized binding over Boskar4", "setting": "[2]", "result": 37, "unit": "fold"}
    ]}
  ]
}
